These results are taken from patent US20260137781A1 (University of California, published 2026).

Assay [1] concerns the target T1, recombinant Itgβ2 (Integrin beta-2 complex, alpha chain not stated for this result).
T1 construct: Bought R&D Systems heterodimer; also called Integrin-beta 2 complexes
In words: BLI (Octet), antibody captured on AHQ biosensors, Integrin beta-2 complex in solution, 1:1 fit. The protocol: (§1) To determine the binding kinetic parameters of the antibodies, BLI experiments were performed on an Octet HTX instrument (Sartorius) at 1000 rpm and 25° C. All proteins were diluted in an assay buffer (PBS, 1% BSA, 0.05% Tween 20). Test and control antibodies at a concentration of 2 μg/ml were first captured on AHQ biosensors to achieve the binding signals of 0.8-1.3 nm. Unoccupied Fc-binding sites on the antibody-coated sensors were subsequently quenched by 20 μg/mL of the Fc protein. After equilibration with the assay buffer, the biosensors were then dipped for 600 s into wells containing 5-fold serial dilution of Integrin-beta 2 complexes (association phase), followed by a transfer back into an assay buffer for additional 600 s (dissociation phase). Assay buffer alone served as a negative control. Binding response data were reference subtracted and were globally fitted with 1:1 binding model using ForteBio's Octet Systems software 9.0.

Assay [2] has as its target T2, Integrin beta-2/Integrin alpha-L recombinant protein complex (R and D 3868-AV) (UniProt P20701 26-1090).
T2 construct: Bought complex; also called Itgal/Itgβ2; ItgaL/Itgβ2
As to the kind of experiment: BLI (Octet), antibody captured on AHQ biosensor, integrin complex in solution at 300/60/12 nM; the legend paragraph 15 names Itgal/Itgb2 as the antigen. The procedure: as §1
On the technique in general: In BLI a coated tip is dipped into the sample, and binding shifts an interference pattern.

Assay [3] addresses Integrin beta-2/Integrin alpha-M recombinant protein complex (R and D 4047-AM) (UniProt P11215 17-1105). As to the kind of experiment: phage display selection on immobilised complex, clones evaluated by phage ELISA. The procedure: Briefly, Integrin-beta-2 recombinant protein complexes were immobilized on Maxisorp Immuno plates (ThermoFisher, #12-565-135) and used for positive binding selections with library phage pools that were first exposed to neutravidin coated wells to deplete nonspecific binders. After four rounds of binding selections, clonal phage was prepared and evaluated by phage ELISA and sequencing as described (PMID: 23219464).
On the technique in general: In an ELISA, binding on a coated surface is turned into a signal by an enzyme label.

B1: Antibody D3-7065 (antibody, V domains shown)
VH: EVQLVESGGGLVQPGGSLRLSCAASGFTISYYYMHWVRQAPGKGLEWVASISSSSGYTYYADSVKGRFTISADTSKNTAYLQMNSLRAEDTAVYYCARGAMDYWGQGTLVTVSS
VL: DIQMTQSPSSLSASVGDRVTITCRASQSVSSAVAWYQQKPGKAPKLLIYSASSLYSGVPSRFSGSRSGTDFTLTISSLQPEDFATYYCQQFSSGSWAPITFGQGTKVEIK
notes: It was purified on protein A and captured on AHQ biosensors for BLI
With B1, the Kd in assay [1] worked out at 1.56 nM. The binding result in assay [2] and in assay [3] was “binds” in each case.

Broadly, the Kd is the constant that tells how readily two partners part at equilibrium.
